Experimental data: US20140274782A1 (Stanford University, published 2014)

Columns and labels:
Assay in all cases: ProtoArray, GST-treated control array;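 note: human protein microarray (about 9500 recombinant proteins) incubated overnight with GST alone plus SAM cofactor as the negative control for G9a SET domain methylation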
[1] = target: T1, RAB7B-RAB7B, member RAS oncogene family (RAB7B) (human, UniProt Q96AH8 1-199)
T1 sequence (looked up): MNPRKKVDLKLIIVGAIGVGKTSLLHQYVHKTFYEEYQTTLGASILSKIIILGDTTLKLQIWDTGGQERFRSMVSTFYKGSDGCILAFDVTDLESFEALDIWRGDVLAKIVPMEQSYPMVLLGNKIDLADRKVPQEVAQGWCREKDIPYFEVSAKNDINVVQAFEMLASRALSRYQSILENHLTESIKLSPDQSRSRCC

[2] = target: T2, CDK5RAP3-CDK5 regulatory subunit-associated protein 3 (human, UniProt Q96JB5 1-506, limits assumed)
T2 sequence (looked up): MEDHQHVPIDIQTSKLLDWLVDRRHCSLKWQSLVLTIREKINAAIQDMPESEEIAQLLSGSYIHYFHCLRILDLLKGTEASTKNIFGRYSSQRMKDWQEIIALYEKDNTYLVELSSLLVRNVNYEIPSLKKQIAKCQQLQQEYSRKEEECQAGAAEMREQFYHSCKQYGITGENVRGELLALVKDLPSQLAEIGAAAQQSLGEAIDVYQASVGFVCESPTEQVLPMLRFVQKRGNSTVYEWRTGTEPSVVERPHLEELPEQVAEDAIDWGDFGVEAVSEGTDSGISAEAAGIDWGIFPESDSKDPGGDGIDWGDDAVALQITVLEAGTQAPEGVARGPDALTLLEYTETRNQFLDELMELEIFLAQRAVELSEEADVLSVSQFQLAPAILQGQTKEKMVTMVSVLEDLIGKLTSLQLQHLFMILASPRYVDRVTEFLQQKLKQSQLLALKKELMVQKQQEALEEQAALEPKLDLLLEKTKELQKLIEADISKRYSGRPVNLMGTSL

[3] = target: T3, C12orf62-chromosome 12 open reading frame 62 (C12orf62) (human, UniProt Q96I36 1-57)
T3 sequence (looked up): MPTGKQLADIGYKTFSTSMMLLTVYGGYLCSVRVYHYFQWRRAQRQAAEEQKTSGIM

[4] = target: T4, LYPLAL1-lysophospholipase-like 1 (LYPLAL1) (human, UniProt Q5VWZ2 1-237)
T4 sequence (looked up): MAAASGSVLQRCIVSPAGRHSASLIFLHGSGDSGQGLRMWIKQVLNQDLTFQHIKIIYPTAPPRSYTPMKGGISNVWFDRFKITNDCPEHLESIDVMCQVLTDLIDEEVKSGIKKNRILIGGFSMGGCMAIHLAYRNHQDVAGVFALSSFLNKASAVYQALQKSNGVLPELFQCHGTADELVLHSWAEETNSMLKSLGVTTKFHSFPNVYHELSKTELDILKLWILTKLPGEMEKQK

[5] = target: T5, GFOD1-Glucose-fructose oxidoreductase domain-containing protein 1 (human, UniProt Q9NXC2 22-390, limits assumed)
T5 sequence (looked up): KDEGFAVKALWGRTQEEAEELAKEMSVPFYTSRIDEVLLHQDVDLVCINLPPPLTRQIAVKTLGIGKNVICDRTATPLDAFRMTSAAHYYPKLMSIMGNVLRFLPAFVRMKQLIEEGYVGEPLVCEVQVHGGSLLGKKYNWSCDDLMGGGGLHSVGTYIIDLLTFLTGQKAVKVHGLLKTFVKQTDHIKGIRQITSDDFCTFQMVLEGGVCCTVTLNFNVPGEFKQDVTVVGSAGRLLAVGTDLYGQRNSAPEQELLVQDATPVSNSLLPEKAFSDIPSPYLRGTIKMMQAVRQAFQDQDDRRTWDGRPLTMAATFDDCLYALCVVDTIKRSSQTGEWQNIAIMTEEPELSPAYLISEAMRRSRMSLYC

[6] = target: T6, LYRM7-Lyrm7 homolog (mouse) (LYRM7) (human, UniProt Q5U5X0 1-104)
T6 sequence (looked up): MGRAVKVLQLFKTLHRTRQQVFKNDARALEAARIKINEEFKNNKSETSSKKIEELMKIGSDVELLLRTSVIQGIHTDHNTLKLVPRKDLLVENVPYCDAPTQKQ

[7] = target: T7, SMAP1-stromal membrane-associated protein 1 (SMAP1) (human, UniProt Q8IYB5 1-467, limits assumed)
T7 sequence (looked up): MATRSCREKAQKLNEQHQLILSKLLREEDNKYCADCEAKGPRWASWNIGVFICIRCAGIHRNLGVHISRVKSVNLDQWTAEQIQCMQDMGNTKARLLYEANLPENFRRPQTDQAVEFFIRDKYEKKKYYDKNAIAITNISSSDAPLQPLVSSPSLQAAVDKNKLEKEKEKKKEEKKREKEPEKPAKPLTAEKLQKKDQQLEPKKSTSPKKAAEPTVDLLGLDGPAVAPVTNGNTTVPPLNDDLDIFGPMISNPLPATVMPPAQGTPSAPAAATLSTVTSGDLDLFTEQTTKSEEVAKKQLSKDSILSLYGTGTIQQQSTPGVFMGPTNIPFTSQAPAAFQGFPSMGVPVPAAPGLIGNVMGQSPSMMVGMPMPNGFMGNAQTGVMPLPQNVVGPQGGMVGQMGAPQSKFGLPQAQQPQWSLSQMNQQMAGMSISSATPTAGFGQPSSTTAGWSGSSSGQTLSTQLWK

[8] = target: T8, GHRL-ghrelin/obestatin preprohormone (GHRL) (human, UniProt Q9UBU3 1-117, limits assumed)
T8 sequence (looked up): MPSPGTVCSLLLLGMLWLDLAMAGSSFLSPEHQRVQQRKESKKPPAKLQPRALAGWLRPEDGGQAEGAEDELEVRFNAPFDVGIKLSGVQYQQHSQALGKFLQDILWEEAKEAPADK

[9] = target: FTL-ferritin, light polypeptide (FTL) (human, UniProt P02792 1-175)
[10] = target: T9, CCL24-C-C motif chemokine 24 (human, UniProt O00175 27-119, limits assumed)
T9 sequence (looked up): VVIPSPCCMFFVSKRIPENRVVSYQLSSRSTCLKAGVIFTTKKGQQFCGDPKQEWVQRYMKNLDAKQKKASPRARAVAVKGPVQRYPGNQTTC

[11] = target: FTH1-Ferritin heavy chain (human, UniProt P02794 1-183)
FTH1-Ferritin heavy chain, sequence (P02794 whole entry): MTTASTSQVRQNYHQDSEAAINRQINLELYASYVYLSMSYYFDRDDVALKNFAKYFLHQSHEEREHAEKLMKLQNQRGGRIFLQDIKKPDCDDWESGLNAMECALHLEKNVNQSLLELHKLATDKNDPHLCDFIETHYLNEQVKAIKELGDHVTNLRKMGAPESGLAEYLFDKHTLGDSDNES

FTL-ferritin, light polypeptide (FTL), sequence (P02792 whole entry): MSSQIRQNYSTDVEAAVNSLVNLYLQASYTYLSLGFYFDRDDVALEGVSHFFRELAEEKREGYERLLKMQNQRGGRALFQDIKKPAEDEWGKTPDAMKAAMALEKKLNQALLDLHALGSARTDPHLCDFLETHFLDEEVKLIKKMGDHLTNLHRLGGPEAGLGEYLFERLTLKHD

GST Average SNR [1]: -0.309 | GST Average SNR [2]: -0.34 | GST Average SNR [3]: 0.575 | GST Average SNR [4]: 0.066 | GST Average SNR [5]: 0.413 | GST Average SNR [6]: 0.278 | GST Average SNR [7]: 1.37 | GST Average SNR [8]: 0.402 | GST Average SNR [9]: 0.717 | GST Average SNR [10]: 0.109 | GST Average SNR [11]: 0.815
B1: 3× Flag-3×MBT (designed binder)
chain: EEWSSSQPATGEKKECWSWESYLEEQKAITAPVSLFQDSQAVTHNKNGFKLGMKLEGIDPQHPSMYFILTVAEVCGYRLRLHFDGYSECHDFWVNANSPDIHPAGWFEKTGHKLQPPKGYKEEEFSWSQYLRSTRAQAAPKHLFVSQSHSPPPLGFQVGMKLEAVDRMNPSLVCVASVTDVVDSRFLVHFDNWDDTYDYWCDPSSPYIHPVGWCQKQGKPLTPPQDYPDPDNFCWEKYLEETGASAVPTWAFKVRPPHSFLVNMKLEAVDRRNPALIRVASVEDVEDHRIKIHFDGWSHGYDFWIDADHPDIHPAGWCSKTGHPLQPPLGPREPSSASPGG
notes: also called Flag-tagged 3×MBT; 3xFlag-3xMBT; not shown: made by PreScission cleavage of GST-3× Flag-3×MBT
